5 molecules from patent US20200123264A1 (Regeneron, published 2020) can be followed below.

Broadly, the Kd is the equilibrium constant for the complex coming apart. Usually koff stands for the rate constant with which the complex falls apart. Usually kon stands for the second-order rate constant of association. Usually t½ stands for how long it takes for the measured level to halve.

First the molecules themselves.
T1: recombinant human LEPR extracellular domain expressed with a C-terminal mouse IgG2a Fc tag (human)
T1 construct: Dimeric construct; also called hLEPR.mFc; hLEPR-mFc
T1 chain: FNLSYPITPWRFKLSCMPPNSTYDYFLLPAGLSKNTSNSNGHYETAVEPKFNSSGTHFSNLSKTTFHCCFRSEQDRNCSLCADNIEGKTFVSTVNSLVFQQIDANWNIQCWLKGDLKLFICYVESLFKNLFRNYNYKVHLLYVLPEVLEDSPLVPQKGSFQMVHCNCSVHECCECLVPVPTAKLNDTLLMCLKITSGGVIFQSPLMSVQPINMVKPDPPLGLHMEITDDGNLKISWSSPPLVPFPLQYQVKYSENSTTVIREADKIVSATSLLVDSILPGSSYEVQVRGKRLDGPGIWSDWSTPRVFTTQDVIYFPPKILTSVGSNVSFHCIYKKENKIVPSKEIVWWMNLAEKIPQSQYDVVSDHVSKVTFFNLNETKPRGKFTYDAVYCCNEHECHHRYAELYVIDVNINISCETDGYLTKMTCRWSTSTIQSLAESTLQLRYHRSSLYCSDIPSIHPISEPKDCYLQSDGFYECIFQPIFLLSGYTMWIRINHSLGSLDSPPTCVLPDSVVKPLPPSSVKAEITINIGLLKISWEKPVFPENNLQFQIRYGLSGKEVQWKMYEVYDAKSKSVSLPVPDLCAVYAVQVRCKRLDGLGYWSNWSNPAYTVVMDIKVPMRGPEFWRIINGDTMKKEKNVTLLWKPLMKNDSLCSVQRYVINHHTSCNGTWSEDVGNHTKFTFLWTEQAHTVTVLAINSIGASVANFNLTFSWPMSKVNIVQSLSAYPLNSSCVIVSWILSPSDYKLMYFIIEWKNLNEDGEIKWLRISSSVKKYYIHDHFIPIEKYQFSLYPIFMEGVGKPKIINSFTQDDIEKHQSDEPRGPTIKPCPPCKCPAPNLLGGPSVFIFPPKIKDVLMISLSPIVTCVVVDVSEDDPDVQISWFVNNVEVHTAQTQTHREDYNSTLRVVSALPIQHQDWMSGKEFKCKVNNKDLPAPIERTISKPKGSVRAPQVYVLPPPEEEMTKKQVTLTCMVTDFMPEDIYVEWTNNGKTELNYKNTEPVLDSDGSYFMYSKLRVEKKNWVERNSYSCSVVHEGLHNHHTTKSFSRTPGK

B1: H4H18440P2 (antibody, human IgG4, V domains shown)
VH: QVQLVESGGGMVKPGGSLRLSCAASGFTFSDYYMSWIRQAPGKGLEWISHISITGSTIYYADSVKGRFTISRDNAKNSLYLEMNRLRDEDTAVYYCTRDEPDIVLVRYGMDVWGQGTTVTVSS
VL: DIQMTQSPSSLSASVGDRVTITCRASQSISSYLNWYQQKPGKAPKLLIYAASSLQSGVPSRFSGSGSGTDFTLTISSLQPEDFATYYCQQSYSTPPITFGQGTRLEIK
notes: H4H prefix: human IgG4 Fc
B2: H4H18437P2 (antibody, human IgG4, V domains shown)
VH: QVQLVESGGGVVQPGRSLRLSCAASGFTFSSYGIHWVRQAPGKGLEWVAVISYDGNNKYYADSVKGRFTISRDNSKNTLYLQMNSLRAEDTAVYYCAKDLFLEWLFHGMGVWGQGTTVTVSS
VL: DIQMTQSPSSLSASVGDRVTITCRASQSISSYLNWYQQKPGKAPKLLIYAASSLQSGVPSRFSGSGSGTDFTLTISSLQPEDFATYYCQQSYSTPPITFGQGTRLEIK
notes: H4H prefix: human IgG4 Fc
B3: H4H17322P2 (antibody, human IgG4, V domains shown)
VH: QLQLQESGPGLVKPSETLSLTCTVSGASISSSRFYGGWIRQPPGKGLEWIGDIYYSGNTYYNPSLQSRVTISVDTSKNQFSLKLSSVTAADTAVYYCARHLMITFGGLIVEGFDIWGQGTMVTVSS
VL: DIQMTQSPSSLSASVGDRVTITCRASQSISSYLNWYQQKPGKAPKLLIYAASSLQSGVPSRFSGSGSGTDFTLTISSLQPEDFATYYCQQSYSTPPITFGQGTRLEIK
notes: H4H prefix: human IgG4 Fc
B4: H4H18464P2 (antibody, human IgG4, V domains shown)
VH: QVQLVQSGPEVKKPGASVKVSCKGSGYTFSWYGISWIRQAPGHGLEWMGWISASSGNTRFAQKVQGRLTMTTDTSTSTAYMELRSLRSDDTAVYYCARTGTRPFDYWGQGTLVTVSS
VL: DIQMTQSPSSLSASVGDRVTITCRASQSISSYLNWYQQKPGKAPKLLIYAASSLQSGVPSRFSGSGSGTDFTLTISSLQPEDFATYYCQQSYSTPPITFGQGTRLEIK
notes: H4H prefix: human IgG4 Fc
B5: H4H18457P2 (antibody, human IgG4, V domains shown)
VH: EVQLVESGGSVVRPGESLRLSCAASGFTFDDYGMSWVRQAPGKGLEWVSGISWNGGITVYADSVKGRFTVSRDNAKNSLYLQMNSLRAEDTALYHCARARYGGADYWGQGTLVTVSS
VL: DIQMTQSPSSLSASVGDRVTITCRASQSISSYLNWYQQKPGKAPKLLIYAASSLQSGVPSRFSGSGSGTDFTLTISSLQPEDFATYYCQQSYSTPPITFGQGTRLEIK
notes: H4H prefix: human IgG4 Fc

T2 sequence (P48356 other isoform, or with tags, fused parts or gaps): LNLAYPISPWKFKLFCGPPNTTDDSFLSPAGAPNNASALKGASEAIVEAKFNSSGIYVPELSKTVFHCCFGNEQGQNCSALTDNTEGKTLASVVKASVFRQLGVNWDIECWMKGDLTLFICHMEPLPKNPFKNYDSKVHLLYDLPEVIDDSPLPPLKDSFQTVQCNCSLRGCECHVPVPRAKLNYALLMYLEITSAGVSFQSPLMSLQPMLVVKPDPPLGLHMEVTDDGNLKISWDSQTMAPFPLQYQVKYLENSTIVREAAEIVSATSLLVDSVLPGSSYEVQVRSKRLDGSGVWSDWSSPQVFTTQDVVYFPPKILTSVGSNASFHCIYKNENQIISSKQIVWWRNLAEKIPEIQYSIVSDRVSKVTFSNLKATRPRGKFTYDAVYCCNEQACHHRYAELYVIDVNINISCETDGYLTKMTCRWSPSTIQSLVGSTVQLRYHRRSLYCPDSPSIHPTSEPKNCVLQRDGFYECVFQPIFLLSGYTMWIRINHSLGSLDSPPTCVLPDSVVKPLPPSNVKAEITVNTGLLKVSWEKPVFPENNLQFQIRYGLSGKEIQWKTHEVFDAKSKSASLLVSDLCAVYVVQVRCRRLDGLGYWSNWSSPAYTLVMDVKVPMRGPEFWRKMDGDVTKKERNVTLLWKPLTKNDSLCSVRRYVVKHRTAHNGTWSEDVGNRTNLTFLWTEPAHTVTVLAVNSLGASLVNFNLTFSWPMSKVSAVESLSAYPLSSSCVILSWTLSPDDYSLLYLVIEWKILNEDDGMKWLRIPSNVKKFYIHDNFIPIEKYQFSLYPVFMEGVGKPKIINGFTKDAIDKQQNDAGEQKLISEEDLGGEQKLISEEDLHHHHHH

One assay has as its target T2, recombinant mouse LEPR extracellular domain expressed with a C-terminal myc-myc-hexahistidine tag (mouse, UniProt P48356 22-839).
T2 construct: Monomeric construct; also called mLEPR.MMH; mLEPR-MMH
Put plainly: SPR, mAb captured, 25 C. The method, then: (§1) Equilibrium dissociation constants (KD values) for antigen binding to purified anti-LEPR monoclonal antibodies of the invention were determined using a real-time surface plasmon resonance biosensor using a Biacore 4000 instrument. All binding studies were performed in running buffer containing 10 mM HEPES, 150 mM NaCl, 3 mM EDTA, and 0.05% v/v Surfactant Tween-20, pH 7.4 (HBS-ET running buffer) at 25° C. and 37° C. The Biacore sensor surface was first derivatized by amine coupling with a monoclonal mouse anti-human Fc antibody (GE, # BR-1008-39) to the capture anti-LEPR monoclonal antibodies. The LEPR reagents tested for binding to the anti-LEPR monoclonal antibodies included recombinant human LEPR extracellular domain expressed with a C-terminal myc-myc-hexahistidine tag (hLEPR.MMH; SEQ ID NO:90), recombinant cynomolgus monkey LEPR extracellular domain expressed with a C-terminal myc-myc-hexahistidine tag (mfLEPR.MMH; SEQ ID NO:93), recombinant mouse LEPR extracellular domain expressed with a C-terminal myc-myc-hexahistidine tag (mLEPR.MMH; SEQ ID NO:94), recombinant rat LEPR extracellular domain expressed with a C-terminal myc-myc-hexahistidine tag (rLEPR.MMH; SEQ ID NO:95), and recombinant human LEPR extracellular domain expressed with a C-terminal mouse IgG2a Fc tag (hLEPR.mFc; SEQ ID NO:91). LEPR constructs that include MMH tags are monomeric LEPR constructs, and LEPR constructs including an mFc tag are dimeric LEPR constructs. […] The dissociation of monoclonal antibody bound LEPR reagent was monitored for 10 minutes in HBS-ET running buffer. Kinetic association (10 and dissociation (10 rate constants were determined by fitting the real-time binding sensorgrams to a 1:1 binding model with mass transport limitation using Scrubber 2.0c curve-fitting software. Binding dissociation equilibrium constants (KD) and dissociative half-lives (t½) were calculated from the kinetic rate constants as: […]
(In SPR one partner is held on a chip, and binding of the other changes the refractive index at the surface.)
Regarding B1, the “100 nM mLEPR-MMH Bound (RU)” value is -3 RU.
B2: the “100 nM mLEPR-MMH Bound (RU)” value was 6 RU, the Kd amounted to 264 nM, the koff is 0.00418 s⁻¹ and the kon worked out at 15800 M⁻¹ s⁻¹. The t½ is 2.8 min.
As to B3, the “100 nM mLEPR-MMH Bound (RU)” value turned out to be 0 RU.
For the molecule B4, the “100 nM mLEPR-MMH Bound (RU)” value is -1 RU.
For B5, the “100 nM mLEPR-MMH Bound (RU)” value worked out at 1 RU.

The target in the next assay is T3, recombinant cynomolgus monkey LEPR extracellular domain expressed with a C-terminal myc-myc-hexahistidine tag (cynomolgus monkey, UniProt Q9MYL0 22-837 (rhesus entry)).
T3 construct: Monomeric construct; also called mfLEPR.MMH; mfLEPR-MMH
Briefly: SPR, mAb captured, 25 C. As for the experimental part: as §1
With B1, the “100 nM mfLEPR-MMH Bound (RU)” value worked out at 67 RU, the Kd came to 54.1 nM, the off-rate constant (koff) is 0.00268 s⁻¹ and the kon came out at 49500 M⁻¹ s⁻¹. Further, the t½ is 4.3 min.
On to B2, for which the “100 nM mfLEPR-MMH Bound (RU)” value came to 70 RU, the Kd is 58.9 nM, the off-rate constant (koff) stood at 0.00405 s⁻¹ and the kon stood at 68700 M⁻¹ s⁻¹. The t½ came to 2.9 min.
As to B3, the “100 nM mfLEPR-MMH Bound (RU)” value came to 102 RU, the Kd amounted to 4.16 nM, the koff is 0.000292 s⁻¹ and the kon came out at 70200 M⁻¹ s⁻¹. Further, the t½ worked out at 40 min.
On to B4, for which the “100 nM mfLEPR-MMH Bound (RU)” value was 15 RU, the Kd stood at 60.4 nM, the koff is 0.00231 s⁻¹ and the kon is 38200 M⁻¹ s⁻¹. The t½ is 5 min.
Turning to B5, the “100 nM mfLEPR-MMH Bound (RU)” value stood at 133 RU, the Kd is 12.2 nM, the koff is 0.00331 s⁻¹ and the kon was determined as 273000 M⁻¹ s⁻¹. The t½ was found to be 3.5 min.

The target of the next assay is T4, recombinant rat LEPR extracellular domain expressed with a C-terminal myc-myc-hexahistidine tag (rat, UniProt Q62959 22-839).
T4 construct: Monomeric construct; also called rLEPR.MMH; rLEPR-MMH
T4 sequence (Q62959 other isoform, or with tags, fused parts or gaps): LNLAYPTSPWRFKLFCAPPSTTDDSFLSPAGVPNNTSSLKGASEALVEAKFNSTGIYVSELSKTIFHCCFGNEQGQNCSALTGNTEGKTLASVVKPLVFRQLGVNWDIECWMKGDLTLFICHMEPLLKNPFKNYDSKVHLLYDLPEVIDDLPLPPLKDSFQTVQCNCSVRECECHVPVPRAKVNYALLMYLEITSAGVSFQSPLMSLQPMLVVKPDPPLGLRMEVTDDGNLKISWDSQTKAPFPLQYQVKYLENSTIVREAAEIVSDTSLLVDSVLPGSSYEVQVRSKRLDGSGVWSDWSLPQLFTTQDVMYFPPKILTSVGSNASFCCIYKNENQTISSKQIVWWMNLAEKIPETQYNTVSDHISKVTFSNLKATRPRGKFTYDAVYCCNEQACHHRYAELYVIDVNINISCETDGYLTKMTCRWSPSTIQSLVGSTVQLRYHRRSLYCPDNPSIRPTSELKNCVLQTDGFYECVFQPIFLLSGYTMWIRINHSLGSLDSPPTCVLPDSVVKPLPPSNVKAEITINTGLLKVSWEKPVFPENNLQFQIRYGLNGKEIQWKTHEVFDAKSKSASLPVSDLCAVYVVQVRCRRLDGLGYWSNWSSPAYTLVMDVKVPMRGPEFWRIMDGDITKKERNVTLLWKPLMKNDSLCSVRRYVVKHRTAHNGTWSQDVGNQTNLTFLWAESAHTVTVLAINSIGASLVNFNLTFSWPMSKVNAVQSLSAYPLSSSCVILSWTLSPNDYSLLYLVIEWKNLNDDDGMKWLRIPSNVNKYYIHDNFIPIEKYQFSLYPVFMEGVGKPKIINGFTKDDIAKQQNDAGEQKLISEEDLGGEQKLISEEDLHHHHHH
Put plainly: SPR, mAb captured, 25 C. As for the experimental part:
as §1
Regarding B1, the “100 nM rLEPR-MMH Bound (RU)” value is -2 RU.
In the case of B2, the “100 nM rLEPR-MMH Bound (RU)” value worked out at 13 RU, the Kd came to 328 nM, the koff is 0.0138 s⁻¹ and the on-rate (kon) was 42100 M⁻¹ s⁻¹. Moreover, the t½ came out at 0.8 min.
For the molecule B4, the “100 nM rLEPR-MMH Bound (RU)” value is -1 RU.
In the case of B5, the “100 nM rLEPR-MMH Bound (RU)” value was 18 RU, the Kd is 730 nM, the koff amounted to 0.0206 s⁻¹ and the on-rate constant (kon) is 28300 M⁻¹ s⁻¹. The t½ stood at 0.6 min.

The target of another assay is T1, recombinant human LEPR extracellular …. Put plainly: SPR, mAb captured, 25 C. The method, then: as §1
B1: the “100 nM hLEPR-mFc Bound (RU)” value worked out at 140 RU, the Kd was 0.443 nM, the koff amounted to 6.82e-05 s⁻¹ and the kon was determined as 154000 M⁻¹ s⁻¹. Moreover, the t½ was determined as 169 min.
Take B2: the “100 nM hLEPR-mFc Bound (RU)” value came to 70 RU, the dissociation constant (Kd) was 5.27 nM, the koff amounted to 0.000536 s⁻¹ and the kon came out at 102000 M⁻¹ s⁻¹. Also, the t½ was 22 min.
Take B3: the “100 nM hLEPR-mFc Bound (RU)” value was 74 RU, the Kd stood at 1.77 nM, the koff came to 0.000114 s⁻¹ and the kon was 64500 M⁻¹ s⁻¹. For the same molecule, the t½ was determined as 102 min.
For the molecule B4, the “100 nM hLEPR-mFc Bound (RU)” value came out at 84 RU, the equilibrium dissociation constant (Kd) came out at 0.891 nM, the koff was 0.000188 s⁻¹ and the kon amounted to 211000 M⁻¹ s⁻¹. The t½ was found to be 61 min.
For the molecule B5, the “100 nM hLEPR-mFc Bound (RU)” value turned out to be 149 RU, the dissociation constant Kd is 0.863 nM, the koff turned out to be 0.000423 s⁻¹ and the kon turned out to be 491000 M⁻¹ s⁻¹. The t½ is 27 min.

The target in another assay is T5, recombinant human LEPR extracellular domain expressed with a C-terminal myc-myc-hexahistidine tag (human, UniProt P48357 22-839).
T5 construct: Monomeric construct; also called hLEPR.MMH; hLEPR-MMH
Briefly: SPR, mAb captured, 25 C. The method, then:
as §1
Take B1: the “100 nM hLEPR-MMH Bound (RU)” value is 71 RU, the Kd stood at 11.8 nM, the koff came to 0.000497 s⁻¹ and the kon worked out at 42300 M⁻¹ s⁻¹. Further, the t½ turned out to be 23 min.
With B2, the “100 nM hLEPR-MMH Bound (RU)” value came to 56 RU, the Kd came out at 65.3 nM, the koff came to 0.00375 s⁻¹ and the kon was found to be 57400 M⁻¹ s⁻¹. For the same molecule, the t½ turned out to be 3.1 min.
On to B3, for which the “100 nM hLEPR-MMH Bound (RU)” value came to 66 RU, the Kd is 5.11 nM, the koff is 0.000224 s⁻¹ and the association rate constant (kon) was 43800 M⁻¹ s⁻¹. The t½ stood at 52 min.
The matching figures for B4: 60 RU, 9.09 nM, 0.00113 s⁻¹, 124000 M⁻¹ s⁻¹ and 10 min.
Consider B5, for which the “100 nM hLEPR-MMH Bound (RU)” value is 119 RU, the Kd stood at 9.89 nM, the koff turned out to be 0.00252 s⁻¹ and the association rate constant (kon) came out at 255000 M⁻¹ s⁻¹. The t½ was 5 min.

A further assay addresses T6, extracellular domain portion of LEPR protein expressed with a C-terminal human Fc tag (human).
T6 construct: Dimeric construct; also called hLEPR.hFc; hLEPR-hFc
Briefly: competition ELISA, 500 nM Ab, 10 nM hLEPR-hFc binding to coated hLeptin. As for the experimental part: These antibody-protein or protein-protein complexes were then incubated for 1.5 hour at room temperature (RT). […] Samples were developed with a TMB solution (BD Biosciences, #555214; substrate A and B mixed at 1:1 ratio as per manufacturer's instructions) to produce a colorimetric reaction and then neutralized with 1M sulfuric acid before measuring absorbance at 450 nm on a Victor X5 plate reader. Data analysis was performed using a sigmoidal dose-response model within Prism™ software (Graph Pad).
(In general: ELISA stands for enzyme-linked immunosorbent assay.)
Turning to B1, the “% blockade” value came to 3%.
Turning to B2, the “% blockade” value turned out to be 9%.
B3: the “% blockade” value was 13%.
As for B4, the “% blockade” value is -5%.
The same measure, in the same setting: the value for B5 was 4%.
